Patent publication US20160137696A1 (Bristol-Myers Squibb, published 2016)
Starred links: 1 amine or outer side, 2 acyl side, 3 side chain; linkers in the order of their positions; H or OH if unused. Positions of bridges follow the written chain, without caps; N, C: chain ends. Non-standard residues stand in square brackets, D forms with d. Groups on a side chain read outwards from the residue. Primed or numbered codes have the meaning given here. No end group written: not given here. *: point of attachment. PEG8′ = PEG8 unit (23-azido-3,6,9,12,15,18,21-heptaoxatricosyl, i.e. an eight-unit PEG spacer) linking the triazole to vitamin E succinate; Pra′ = propargylglycine (built in as LPH), clicked to a 1-substituted triazol-4-yl-alanine, O=C([C@H](Cc1cn([*:3])nn1)N[*:1])[*:2]; X1 = (S)‑3‑carboxy‑3‑(15-carboxypentadecanoylamino)propyl, O=C(O)CCCCCCCCCCCCCCC(=O)N[C@@H](CC*)C(=O)O; Pra″ = its azide, alkyne or alkene has reacted where a group follows in round brackets; X2 = (S)‑3‑carboxy‑3‑palmitamidopropyl, CCCCCCCCCCCCCCCC(=O)N[C@@H](CC*)C(=O)O; Pra(3) = propargylglycine, clicked to an azide to give a triazolyl-alanine; triazole = 1,2,3-triazole formed by click of the Pra alkyne with the azide; Trp(1-CH2CO) = O=C([C@H](Cc1cn(CC(=O)[*:3])c2ccccc12)N[*:1])[*:2]; Phe(3,4,5-F3) = N[C@@H](Cc1cc(F)c(F)c(F)c1)C(=O)O; Biotin = O=C1N[C@H]2[C@H](CS[C@H]2CCCCC(=O)*)N1; C18 diacid = O=C(O)CCCCCCCCCCCCCCCCC(=O)*; Phe(4-F) = N[C@@H](Cc1ccc(F)cc1)C(=O)O; γGlu = O=C(O)[C@H](CCC(=O)[*:2])N[*:1]; Palmitoyl = CCCCCCCCCCCCCCCC(=O)*; Hyp = O=C(O)[C@@H]1C[C@@H](O)CN1; NMeF = CN[C@@H](Cc1ccccc1)C(=O)O; NMeE = CN[C@@H](CCC(=O)O)C(=O)O; dHyp = O=C(O)[C@H]1C[C@H](O)CN1; NMeNle = CCCC[C@H](NC)C(=O)O; Suc = O=C(CCC(=O)[*:2])[*:1]; triazole″ = not defined here; Pip = O=C(O)[C@@H]1CCCCN1; NMeA = CN[C@@H](C)C(=O)O; Orn = NCCC[C@H](N)C(=O)O; PEG4′ = not defined here; PEG7′ = not defined here; Pra = C#CC[C@H](N)C(=O)O; Dab = NCC[C@H](N)C(=O)O; Dap = NC[C@H](N)C(=O)O; Sar = CNCC(=O)O

B1: Example 14088 (peptide)
peptide: FFXPDVFDPWYLCGX
modifications: as m17 (INT 1400L); Pra triazole-linked to vitamin E succinate 5-azidopentylamide
B2: INT-1400J (peptide)
peptide: {CH2CO}-Y[NMeA]DPHK[Hyp]WK[Trp(1-CH2CO)][NMeNle][NMeNle]ECG[Pra]
modifications: thioether N-14; not fully specified (C-terminus); printed as ClAc-Tyr-mAla-Asp-Pro-His-Lys-Hyp-Trp-Lys-Trp(1-carboxymethyl)-mNle-mNle-Glu-Cys-Gly-[(S)-propargylglycine], cyclised ClAc-Cys
notes: also called Intermediate 1400J
B3: Example 14084 (peptide)
peptide: {CH2CO}-[Phe(3,4,5-F3)][NMeF][NMeNle][dHyp]DV[NMeF]D[dP]WYLCG[Pra″]([triazole-(S)‑3‑carboxy‑3‑aminopropyl-Palmitoyl])
modifications: thioether N-13; not fully specified; printed as ClAc-F3Phe-mPhe-mNle-dHyp-Asp-Val-mPhe-Asp-dPro-Trp-Tyr-Leu-Cys-Gly-[(S)-propargylglycine]
B4: Example 14087 (peptide)
peptide: FFXPDVFXPWYLCGX
modifications: as m16 (INT 1400K); Pra triazole-linked to vitamin E succinate 5-azidopentylamide

Key:
[1] = target: T1, Recombinant Human PD-L1-TVMV-His (human, UniProt Q9NZQ7 19-239); assay: HTRF vs PD-1-Ig
T1 construct: expressed in HEK293T cells; also called PD-L1-His; hPD-L1(19-239)-TVMV-His
T1 sequence (Q9NZQ7 other isoform, or with tags, fused parts or gaps limits assumed): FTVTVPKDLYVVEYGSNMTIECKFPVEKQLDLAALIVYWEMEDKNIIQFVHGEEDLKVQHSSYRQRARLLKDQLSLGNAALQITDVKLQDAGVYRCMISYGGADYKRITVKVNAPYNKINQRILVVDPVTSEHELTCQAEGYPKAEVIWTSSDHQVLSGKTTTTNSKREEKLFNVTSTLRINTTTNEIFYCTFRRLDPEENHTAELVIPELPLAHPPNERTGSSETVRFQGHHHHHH
Method: (§1) Homogenous Time-Resolved Fluorescence (HTRF) Assays of Binding of Soluble PD-1 to Soluble PD-L1. Soluble PD-1 and soluble PD-L1 refers to proteins with carboxyl-end truncations that remove the transmembrane-spanning regions and are fused to heterologous sequences, specifically the Fc portion of the human immunoglobuling G sequence (Ig) or the hexahistidine epitope tag (His). All binding studies were performed in an HTRF assay buffer consisting of dPBS supplemented with 0.1% (w/v) bovine serum albumin and 0.05% (v/v) Tween-20. For the PD-1-Ig/PD-L1-His binding assay, inhibitors were pre-incubated with PD-L1-His (10 nM final) for 15 m in 4 μl of assay buffer, followed by addition of PD-1-Ig (20 nM final) in 1 μl of assay buffer and further incubation for 15 m. PD-L1 fusion proteins from either human, cynomologous macaques, mouse, or other species were used. HTRF detection was achieved using europium crypate-labeled anti-Ig monoclonal antibody (1 nM final) and allophycocyanin (APC) labeled anti-His monoclonal antibody (20 nM final). Antibodies were diluted in HTRF detection buffer and 5 μl was dispensed on top of binding reaction. The reaction was allowed to equilibrate for 30 minutes and signal (665 nm/620 nm ratio) was obtained using an EnVision fluorometer. Additional binding assays were established between PD-I-Ig/PD-L2-His (20 and 5 nM, respectively), CD80-His/PD-L1-Ig (100 and 10 nM, respectively) and CD80-His/CTLA4-Ig (10 and 5 nM, respectively). Binding/competition studies between biotinylated Compound No. 71 and human PD-L1-His were performed as follows. Macrocyclic peptide inhibitors were pre-incubated with PD-L1-His (10 nM final) for 60 minutes in 4 μl of assay buffer followed by addition of biotinylated Compound No. 71 (0.5 nM final) in 1 μl of assay buffer. Binding was allowed to equilibrate for 30 minutes followed by addition of europium crypated labeled Streptavidin (2.5 pM final) and APC-labeled anti-His (20 nM final) in 5 μl of HTRF buffer. The reaction was allowed to equilibrate for 30 m and signal (665 nm/620 nm ratio) was obtained using an EnVision fluorometer.

[2] = target: T1, Recombinant Human PD-L1-TVMV-His; assay: HTRF vs PD-1-Ig; A = IC50 0.10-1.6 µM
Method: as §1

[3] = target: T1, Recombinant Human PD-L1-TVMV-His; assay: HTRF vs PD-1-Ig; B = IC50 0.01-0.099 µM
Method: as §1

Binder | IC50 [1] | IC50 [2] | IC50 [3]
B1 | 799 nM | – | –
{CH2CO}-Y[NMeA]DPHK[Hyp]WKW[NMeNle][NMeNle]ECG[Pra(3)]([triazole″-PEG4′-Suc-vitamin E])G (thioether N-14; reading uncertain) [Example 14060] | – | 100 to 1600 nM | –
B2 | 8.8 nM | – | –
{CH2CO}-Y[NMeA]DPHK[Hyp]WKW[NMeNle][NMeNle]ECG[Pra′]([triazole-X1]) (thioether N-14) [Example 14067] | 10.4 nM | – | –
{CH2CO}-F[NMeF][NMeNle][Sar]DV[NMeF]Y[NMeE]WYLCGGGK([PEG4‑propionyl-Biotin])-NH2 (thioether N-13) [Example 3620] | 9 nM | – | –
B3 | 627 nM | – | –
{CH2CO}-Y[NMeA]NP[Dap]L[Hyp]W[Dab][Trp(1-CH2CO)][NMeNle][NMeNle]LCGG[Pra″]([triazole-(S)‑4‑azido‑2‑palmitamidobutanoic acid]) (thioether N-14 (inferred)) [Example 13122] | – | 100 to 1600 nM | –
{CH2CO}-Y[NMeA]DPHK[Hyp]WK[Trp(1-CH2CO)][NMeNle][NMeNle]ECG[Pra′]([triazole-X2]) (thioether N-14) [Example 14072] | 8.5 nM | – | –
{CH2CO}-Y[NMeA]DPHQ[Hyp]WSW[NMeNle][NMeNle]ECG[Pra(3)]([triazole″-PEG8′-Suc-vitamin E])G (thioether N-14; reading uncertain) [Example 14055] | 388 nM | – | –
B4 | – | 100 to 1600 nM | –
{CH2CO}-[Phe(4-F)][Pip]DP[Dap]L[Hyp]W[Dab][Trp(1-CH2CO)][NMeNle][NMeNle]LCG[Dab]([γGlu-C18 diacid]) (thioether N-14 (inferred)) [Example 13150] | 20.9 nM | – | –
{CH2CO}-[Phe(3,4,5-F3)][NMeF][NMeNle][dP]DV[NMeF][Orn][dP]WYLCG[Pra′]([triazole-X2]) (thioether N-13) [Example 14081] | – | 100 to 1600 nM | –
{CH2CO}-Y[NMeA]NP[Dap]L[Hyp]W[Dab][Trp(1-CH2CO)][NMeNle][NMeNle]LCGG[Pra″]([triazole-PEG7′-γGlu-C18 diacid]) (thioether N-14 (inferred)) [Example 13123] | 150 nM | – | –
{CH2CO}-Y[NMeA]DPHK[Hyp]WK[Trp(1-CH2CO)][NMeNle][NMeNle]ECG[Pra′]([triazole-X1]) (thioether N-14) [Example 14078] | 10.8 nM | – | 10 to 99 nM
